{"source": "paper PMC8892257", "target": "Orai1-GFP (UniProt Q96D31)", "sequence (Q96D31 whole entry)": "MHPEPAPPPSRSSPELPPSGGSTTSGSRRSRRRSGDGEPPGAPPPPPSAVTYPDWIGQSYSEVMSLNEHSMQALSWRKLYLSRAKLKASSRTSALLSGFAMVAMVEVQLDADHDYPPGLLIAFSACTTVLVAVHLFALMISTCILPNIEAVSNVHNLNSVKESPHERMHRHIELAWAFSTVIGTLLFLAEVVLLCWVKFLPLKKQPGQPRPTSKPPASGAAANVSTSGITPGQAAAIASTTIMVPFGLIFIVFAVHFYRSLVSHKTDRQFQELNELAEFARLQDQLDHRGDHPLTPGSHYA", "test": "FRET or BRET", "data": [{"substance": "STIM1A-mCherry (natural protein)", "values": [{"measurement": "FRET efficiency (E-FRET)", "result": 0.26}]}]}
